Among the data in the supplement of paper PMC10567573 are protein stability index values, retold here.

First the molecules themselves.
B1: TOR1AIP2 (parent)
chain: HHVADAYTSSQKVSPIQIDGAGRT
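Further: lentivirally expressed fusions sorted by FACS into six bins by GFP to DsRed ratio, PSI derived from sequencing read proportions per bin multiplied by bin number.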

Variants of B1 are the subject of this data set. The experiment in a line: protein stability index of a GFP-peptide fusion (GPS, HEK-293T) (PSI 1-6); higher = more stable. Conditions: c terminus: a fixed tail appended.
With HHVAPAYTSSQKVSPIQIDGAGRT, the protein stability index stood at 3.54. To HHVATAYTSSQKVSPIQIDGAGRT belongs 3.68; to HHVAKAYTSSQKVSPIQIDGAGRT, 3.19; to HHVAYAYTSSQKVSPIQIDGAGRT, 2.35. To HHVAFAYTSSQKVSPIQIDGAGRT belongs 2.24. With HHVANAYTSSQKVSPIQIDGAGRT, the protein stability index came to 3.33. Regarding HHVAMAYTSSQKVSPIQIDGAGRT, the protein stability index worked out at 2.48. For the variant HHVASAYTSSQKVSPIQIDGAGRT, the protein stability index was determined as 2.72.

HHVAIAYTSSQKVSPIQIDGAGRT: the protein stability index was found to be 2.5. To HHVAQAYTSSQKVSPIQIDGAGRT belongs 2.93; to HHVACAYTSSQKVSPIQIDGAGRT, 2.46. With HHVAWAYTSSQKVSPIQIDGAGRT the figure was 4.17; with HHVAGAYTSSQKVSPIQIDGAGRT, 3.97. For HHVAEAYTSSQKVSPIQIDGAGRT, the protein stability index amounted to 2.73. With HHVALAYTSSQKVSPIQIDGAGRT, the protein stability index is 2.44. For HHVARAYTSSQKVSPIQIDGAGRT, the protein stability index is 3.6. Take HHVAVAYTSSQKVSPIQIDGAGRT: the protein stability index worked out at 2.7. Turning to HHVAHAYTSSQKVSPIQIDGAGRT, the protein stability index amounted to 2.38. With HHVAAAYTSSQKVSPIQIDGAGRT the figure was 2.63; with HHVADAYTSRQKVSPIQIDGAGRT, 2.64; with HHVADAYTSNQKVSPIQIDGAGRT, 3.21. In the case of HHVADAYTSYQKVSPIQIDGAGRT, the protein stability index is 2.94. As to HHVADAYTSVQKVSPIQIDGAGRT, the protein stability index came to 2.9. Take HHVADAYTSLQKVSPIQIDGAGRT: the protein stability index worked out at 3.07. As for HHVADAYTSAQKVSPIQIDGAGRT, the protein stability index was found to be 3. In the case of HHVADAYTSTQKVSPIQIDGAGRT, the protein stability index came out at 3.28. Take HHVADAYTSWQKVSPIQIDGAGRT: the protein stability index was found to be 2.37. On to HHVADAYTSMQKVSPIQIDGAGRT, for which the protein stability index amounted to 2.93. Turning to HHVADAYTSHQKVSPIQIDGAGRT, the protein stability index was 3.17.

For HHVADAYTSEQKVSPIQIDGAGRT, the protein stability index is 3.98. For HHVADAYTSDQKVSPIQIDGAGRT, the protein stability index is 4.33. With HHVADAYTSGQKVSPIQIDGAGRT, the protein stability index amounted to 3.81.

Consider HHVADAYTSQQKVSPIQIDGAGRT, for which the protein stability index amounted to 3.24.

For the variant HHVADAYTSIQKVSPIQIDGAGRT, the protein stability index amounted to 2.72.

Take HHVADAYTSKQKVSPIQIDGAGRT: the protein stability index was 3.46. To HHVADAYTSPQKVSPIQIDGAGRT belongs 3.87; to HHVADAYTSCQKVSPIQIDGAGRT, 2.96. With HHVADAYTSFQKVSPIQIDGAGRT the figure was 2.95; with HHVADAYTPSQKVSPIQIDGAGRT, 2.58. With HHVADAYTNSQKVSPIQIDGAGRT the figure was 3.54. Turning to HHVADAYTHSQKVSPIQIDGAGRT, the protein stability index amounted to 3.77. For the variant HHVADAYTISQKVSPIQIDGAGRT, the protein stability index was 2.42. As to HHVADAYTTSQKVSPIQIDGAGRT, the protein stability index was 2.82. As for HHVADAYTRSQKVSPIQIDGAGRT, the protein stability index stood at 3.75.

In the case of HHVADAYTQSQKVSPIQIDGAGRT, the protein stability index amounted to 3.15. With HHVADAYTDSQKVSPIQIDGAGRT the figure was 4.04; with HHVADAYTASQKVSPIQIDGAGRT, 2.91.

Consider HHVADAYTMSQKVSPIQIDGAGRT, for which the protein stability index was determined as 3.52. To HHVADAYTWSQKVSPIQIDGAGRT belongs 2.65; to HHVADAYTKSQKVSPIQIDGAGRT, 4.43; to HHVADAYTGSQKVSPIQIDGAGRT, 3.79. To HHVADAYTYSQKVSPIQIDGAGRT belongs 3.78; to HHVADAYTLSQKVSPIQIDGAGRT, 3.28; to HHVADAYTVSQKVSPIQIDGAGRT, 1.62.

In the case of HHVADAYTCSQKVSPIQIDGAGRT, the protein stability index worked out at 1.95. Regarding HHVADAYTESQKVSPIQIDGAGRT, the protein stability index stood at 3.11. As for HHVADAYTFSQKVSPIQIDGAGRT, the protein stability index was 2.9.

With HHVADAYTSSQTVSPIQIDGAGRT, the protein stability index stood at 3.59. With HHVADAYTSSQHVSPIQIDGAGRT the figure was 3.54. For HHVADAYTSSQEVSPIQIDGAGRT, the protein stability index is 3.84. As for HHVADAYTSSQLVSPIQIDGAGRT, the protein stability index came to 3.24. As to HHVADAYTSSQSVSPIQIDGAGRT, the protein stability index is 3.77.

In the case of HHVADAYTSSQVVSPIQIDGAGRT, the protein stability index was found to be 3.47. Consider HHVADAYTSSQCVSPIQIDGAGRT, for which the protein stability index turned out to be 3.06. As to HHVADAYTSSQNVSPIQIDGAGRT, the protein stability index was 3.67. For the variant HHVADAYTSSQRVSPIQIDGAGRT, the protein stability index came out at 3.34. On to HHVADAYTSSQIVSPIQIDGAGRT, for which the protein stability index worked out at 3.13. To HHVADAYTSSQAVSPIQIDGAGRT belongs 3.85; to HHVADAYTSSQDVSPIQIDGAGRT, 3.88; to HHVADAYTSSQQVSPIQIDGAGRT, 3.86.

Turning to HHVADAYTSSQPVSPIQIDGAGRT, the protein stability index came out at 4.16.

For the variant HHVADAYTSSQFVSPIQIDGAGRT, the protein stability index was found to be 2.47. For the variant HHVADAYTSSQMVSPIQIDGAGRT, the protein stability index stood at 3.4.

In the case of HHVADAYTSSQWVSPIQIDGAGRT, the protein stability index was determined as 2.72. Turning to HHVADAYTSSQYVSPIQIDGAGRT, the protein stability index was 3.02. For HHVADAYTSSQGVSPIQIDGAGRT, the protein stability index turned out to be 3.48. As to HHVADPYTSSQKVSPIQIDGAGRT, the protein stability index was 4.3.

As to HHVADHYTSSQKVSPIQIDGAGRT, the protein stability index stood at 3.85. HHVADSYTSSQKVSPIQIDGAGRT: the protein stability index was 4.14. With HHVADEYTSSQKVSPIQIDGAGRT, the protein stability index stood at 4.77. HHVADLYTSSQKVSPIQIDGAGRT: the protein stability index turned out to be 3.2. With HHVADDYTSSQKVSPIQIDGAGRT the figure was 4.19; with HHVADFYTSSQKVSPIQIDGAGRT, 2.69. HHVADKYTSSQKVSPIQIDGAGRT: the protein stability index was determined as 4.03. Turning to HHVADGYTSSQKVSPIQIDGAGRT, the protein stability index came to 4.39.

Regarding HHVADYYTSSQKVSPIQIDGAGRT, the protein stability index is 3.32. As to HHVADCYTSSQKVSPIQIDGAGRT, the protein stability index worked out at 3.98.

On to HHVADVYTSSQKVSPIQIDGAGRT, for which the protein stability index turned out to be 3.48.

Regarding HHVADMYTSSQKVSPIQIDGAGRT, the protein stability index worked out at 3.46. As to HHVADWYTSSQKVSPIQIDGAGRT, the protein stability index was determined as 2.19. For HHVADNYTSSQKVSPIQIDGAGRT, the protein stability index turned out to be 4.26.

Turning to HHVADRYTSSQKVSPIQIDGAGRT, the protein stability index is 3.95. Turning to HHVADTYTSSQKVSPIQIDGAGRT, the protein stability index was 4.02. With HHVADIYTSSQKVSPIQIDGAGRT the figure was 3.67.
